Target: the molecule itself
Assay: crystal structure

B1: coproheme decarboxylase (HemQ) from Geobacillus stearothermophilus (enzyme)
chain: MSEAAQTLDGWYCLHDFRTIDWSAWKTLPNEEREAAISEFLALVDQWETTESEKQGSHAVYTIVGQKADILFMILRPTLDELHEIETALNKTKLADYLLPAYSYVSVVELSNYLASGSEDPYQIPEVRRRLYPILPKTNYICFYPMDKRRQGNDNWYMLSMEQRRELMRAHGMTGRKYAGKVTQIITGSVGLDDFEWGVTLFSDDALQFKKLVYEMRFDEVSARFGEFGSFFVGTRLPMENVSSFFHV
stoichiometry N: 5

From publication PMC5348300 (Journal of the American Chemical Society, 2017)
